This test addresses T1, STING-HA (Sting cDNA with a C-terminal HA tag, stably expressed in p53-/- MEFs) (mouse, UniProt Q3TBT3 1-378).
T1 construct: not shown: C-terminal HA tag added by PCR
T1 sequence (looked up): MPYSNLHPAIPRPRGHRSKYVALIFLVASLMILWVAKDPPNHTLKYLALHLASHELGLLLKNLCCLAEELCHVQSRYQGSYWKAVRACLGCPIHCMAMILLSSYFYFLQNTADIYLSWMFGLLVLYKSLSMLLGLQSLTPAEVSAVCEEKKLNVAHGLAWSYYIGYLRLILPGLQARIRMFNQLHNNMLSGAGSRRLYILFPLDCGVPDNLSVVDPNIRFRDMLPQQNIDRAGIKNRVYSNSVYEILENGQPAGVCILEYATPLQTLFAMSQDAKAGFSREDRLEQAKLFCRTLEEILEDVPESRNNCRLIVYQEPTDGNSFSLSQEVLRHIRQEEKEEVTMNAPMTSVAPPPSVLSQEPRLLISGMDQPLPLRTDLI
Kind of test: anti-HA immunoprecipitation of STING-HA from MEF lysate, SILAC mass spectrometry. How it is done: Light (L) and heavy (H) isotope-labeled p53−/− MEFs mock infected (L) or stably expressing Sting-HA (H) were stimulated with 1000 U/mL IFNβ for 18 h. H cells were transfected with ISD for 2.5 h. Cells were lysed in 0.2% NP-40 buffer (above), and insoluble proteins were removed by centrifugation. 18 mg of each lysate was mixed with 1 ug/mL anti-HA antibody and Protein G beads (Pierce), and rotated for 2.5 h at 4° C. Beads were pelleted and washed extensively with wash buffer (above). The two samples were mixed, cysteines were reduced by DTT and alkylated with iodoacetamide, and proteins were eluted by heating in SDS sample buffer (Life Technologies) for 10 min before separation on a 4-12% gradient gel. The whole gel lane was cut into 8 slices, proteins were digested inside the gel with trypsin, and peptides were extracted from the gel as described4. Extracted peptides were purified with StageTips5 and analyzed with a 100 min acquisition method on a Thermo EASY-nLC 1000 UHPLC coupled to a Q Exactive mass spectrometer. […] All proteins were identified with at least 2 or more unique peptides and quantified with 3 or more ratios. […] To identify significant interactions, P-values were calculated via Gaussian modeling of the log(H/L) data, and proteins with P<0.05 were designated as candidates for siRNA screening.

B1: ANP32A (other, mouse, UniProt O35381 1-247, looked up)
chain: MEMDKRIYLELRNRTPSDVKELVLDNCKSIEGKIEGLTDEFEELEFLSTINVGLTSISNLPKLNKLKKLELSENRISGDLEVLAEKCPNLKHLNLSGNKIKDLSTIEPLKKLENLKSLDLFNCEVTNLNAYRENVFKLLPQVMYLDGYDRDNKEAPDSDVEGYVEDDDEEDEDEEEYDEYAQLVEDEEEEDEEEEGEEEDVSGEEEEDEEGYNDGEVDDEEDEEEAGEEEGSQKRKREPDDEGEEDD
notes: Endogenous protein co-precipitated from MEF lysates
With B1, the binding result is recorded as “no binding”.

B2: HMGB2 (other, mouse, UniProt P30681 1-210, looked up)
chain: MGKGDPNKPRGKMSSYAFFVQTCREEHKKKHPDSSVNFAEFSKKCSERWKTMSAKEKSKFEDLAKSDKARYDREMKNYVPPKGDKKGKKKDPNAPKRPPSAFFLFCSENRPKIKIEHPGLSIGDTAKKLGEMWSEQSAKDKQPYEQKAAKLKEKYEKDIAAYRAKGKSEAGKKGPGRPTGSKKKNEPEDEEEEEEEEEEEDDEEEEEDEE
notes: as for B1
Take B2: the binding result is recorded as “no binding”.

(Values after patent publication US20150202223A1 (GENERAL HOSPITAL, published 2015).)
